Measured values reported in patent publication US20110282033A1 (Ablynx, published 2011).

T1: Recombinant human FGFR4/Fc chimera (R&D Systems Cat #685 FR) (human, UniProt P22455 22-369)
T1 construct: extracellular domain; Bought reagent; also called Fc-FGFR4; not shown: Fc part of the bought chimera (detected with anti-human IgG)
T1 sequence (looked up): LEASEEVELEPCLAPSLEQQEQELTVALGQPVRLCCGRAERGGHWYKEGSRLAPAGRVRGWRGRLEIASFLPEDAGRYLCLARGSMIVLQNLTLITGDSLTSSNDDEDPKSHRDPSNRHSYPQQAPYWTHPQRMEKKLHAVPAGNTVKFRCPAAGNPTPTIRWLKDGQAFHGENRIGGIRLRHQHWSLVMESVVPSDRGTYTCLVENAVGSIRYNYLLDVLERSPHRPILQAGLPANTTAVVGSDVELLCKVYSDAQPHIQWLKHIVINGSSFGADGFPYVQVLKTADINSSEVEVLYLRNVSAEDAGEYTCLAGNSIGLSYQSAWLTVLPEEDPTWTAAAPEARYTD


target: T1, Recombinant human FGFR4/Fc chimera (R&D …); test: competition ELISA: FGFR4-Fc with heparin and MgCl2 pre-mixed with Nanobody, binding to coated acidic FGF (129 nM), detection with HRP anti-human IgG
Method: Clones tested in the FGFR4 binding assay were also screened for their ability to block acidic FGF binding to FGFR4-Fc. For this, purified Nanobodies, were used in an ELISA-based ligand competition setup. In short, 2.0 ug/ml (129 nM) human FGF (R&D Systems Cat #232-FA/CF) was coated in 96 well Maxisorp microtiter plates (Nunc) and blocked with 4% Marvel skimmed milk in PBS. In parallel, 0.25 ug/ml (1.9 nM) FGFR4-Fc chimera plus 2.5 μg/ml heparin and 10 mM MgCl₂ were incubated with periplasmic extracts or purified Nanobody. After 1 hour, the receptor-Nanobody pre-mixes were incubated 1 hour with the coated ligand. Bound FGFR4-Fc was detected using HRP-conjugated goat anti-human IgG (Jackson Immunoresearch, Cat #109-035-098). Blocking activity was determined as loss of OD signal, as compared to wells where irrelevant Nanobody had been added. […] Ligand is coated at 129 nM and receptor is added at […].

| IC50 (read off the curve) [nM] | Binder |
| --- | --- |
| ~8 | 55-D5 (VHH, Purified Nanobody) VHH: EVQLVESGGALVQPGGSLRLSCAASGFTFRNYDMSWVRQAPGKGPEWVSSINSGGGSTYYADSVKGRFTISRDNAKNTLYLQMNSLKPEDTAVYYCATGLITTAQAMLEEYDYWGQGTQVTVSS |

target: T2, Recombinant human PDGFRβ/Fc chimera (R&D Systems Cat #385 PR) (human, UniProt P09619 33-532); test: ELISA binding screen on captured PDGFRβ-Fc and ELISA ligand competition
T2 construct: extracellular domain; Bought reagent; also called PDGFRP-Fc; not shown: Fc part of the bought chimera (captured and detected with anti-human IgG)
T2 sequence (P09619 33-532, change not shown): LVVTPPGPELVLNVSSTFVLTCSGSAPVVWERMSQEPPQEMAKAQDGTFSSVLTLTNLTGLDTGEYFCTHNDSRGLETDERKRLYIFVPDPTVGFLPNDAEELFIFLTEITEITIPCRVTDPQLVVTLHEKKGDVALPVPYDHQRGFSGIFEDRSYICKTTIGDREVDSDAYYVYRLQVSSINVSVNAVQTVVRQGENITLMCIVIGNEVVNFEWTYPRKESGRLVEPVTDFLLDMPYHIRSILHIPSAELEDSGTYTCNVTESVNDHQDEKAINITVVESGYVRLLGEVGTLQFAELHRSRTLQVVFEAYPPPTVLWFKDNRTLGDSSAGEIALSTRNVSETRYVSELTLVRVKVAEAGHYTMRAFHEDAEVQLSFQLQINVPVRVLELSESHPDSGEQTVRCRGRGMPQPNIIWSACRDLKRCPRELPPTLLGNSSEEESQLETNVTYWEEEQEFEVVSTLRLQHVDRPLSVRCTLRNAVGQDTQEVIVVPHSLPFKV
Method: (§1) In order to determine binding specificity to PDGFRβ-Fc, the clones were tested in an ELISA binding assay setup, using the monoclonal phage pools. Shortly, 1 ug/ml of Fc-capturing Ab (Rabbit anti-human IgG, DAKO # A423) was coated on Maxisorp ELISA plates (Nunc) and free binding sites were blocked using 4% Marvel skimmed milk in PBS. Next, 0.1 ug/ml receptor in 2% Marvel/PBS was captured. After a wash step with PBS, 10 ul of supernatant from the monoclonal phage inductions of the different clones in 100 ul 2% Marvel PBS were allowed to bind to the captured PDGFRP-Fc. […] Binding specificity was determined based on OD values compared to controls having received no phage.
Clones tested in the PDGFRβ binding assay were also screened for their ability to block PDGF-BB binding to PDGFRβ-Fc. For this, Nanobody containing periplasmic extracts, or selected purified Nanobodies, were used in an ELISA-based ligand competition setup. In short, 1.0 ug/ml (80 nM) recombinant human PDGF-BB (R&D Systems #220-BB) was coated in 96 well Maxisorp microtiter plates (Nunc) and blocked with 4% Marvel skimmed milk in PBS. In parallel, 1 ug/ml (12 nM) PDGFRβ-Fc chimera was incubated with periplasmic extracts or purified Nanobody. After 1 hour, the receptor-Nanobody pre-mixes were incubated 1 hour with the coated ligand. Bound PDGFRβ-Fc was detected using HRP-conjugated goat anti-human IgG (Jackson Immunoresearch, Cat #109-035-098). Blocking activity was determined as loss of OD signal, as compared to wells where no Nanobodies, or irrelevant Nb, had been added.

| Binder | binding result |
| --- | --- |
| 53-B7 (VHH) VHH: EVQLVESGGGLVQAGGSLRLDCAASGRTSYAMGWFRQGTGKEREFVAALSPSGYYTYYEDSVKGRFSIHRDNAKNMVYLQMNSLTPEDTAVYYCAAGRHETASGILPNYWGQGIQVTVSS | binds |
| 53-G8 (VHH) VHH: KVQLVESGGGLVQAGGSLRLDCAASGRTSYAMGWFRQGTGKEREFVSAISPSGYYTYYEDSVKGRFSIHRDNAKNMVYLQMNSLTPEDTAVYYCAAGRHQTVSGILPDYWGQGIQVTVSS | binds |
| 53-G7 (VHH) VHH: EVQLVESGGGLVQAGGSLRLDCAASGRTSYAMGWFRQGTGKEREFVAAISPSGYYTYYEDSVKGRFFIHRDNAKNMVYLQMNSLTPEDTAVYYCAAGRHKTVSGILPDYWGQGIQVTVSS | binds |
| 53-F7 (VHH) VHH: EVQLVESGGALVQPGGSLRLSCAASGSIVSIDFMGWYRQAPGKQREVVTFITSGGSPNYVDSVEGRFTISRDNAKNTMYLQMNSLKPEDTAVYYCYMQSGTAGSWGQGTQVTVSS | binds |

Second part, the binder after the results:

| binding result | Binder |
| --- | --- |
| binds | 53-C4 (VHH) VHH: EVQLVESGGGLVQAGGSLRLDCAASGRTSYAMGWFRQGTGKEREFVAAISPSGYYTYYEDSVKGRFSIHRDNAKNMVYLQMNSLTPEDTAVYYCAAGRHQTVSGILPDYWGQGIQVTVSS |
| binds | 53-F9 (VHH) VHH: EVQLVESGGGLVQAGGSLRLDCAASGRTSYAMGWFRQGTGKEREFVAAISPSGYYTYYEDSVKGRFFMHRDNAKNMVYLQMNSLTPEDTAVYYCAAGRHNTVSGILPDYWGRGIQVTVSS |
| binds | 53-C7 (VHH) VHH: EVQLVESGGGLVQAGGSLRLDCAASGRTSYAMGWFRQGTGQEREFVAAISPSGYYTYYEDSVKGRFNIHRDNTKNMVYLQMNSLTPEDTAVYYCAAGRHKTVSGILPDYWGQGIQVTVSS |
| binds | 53-D6 (VHH) VHH: EVQLVESGGGLVEAGGSLRLSCTASGGTFSTYAMGWFRQAPGKEREFAAAISRNGGSKGYKESVKGRFTISRDNAKNTVYLQMNSLKPEDTAVYYCAASRTYTYSTAMKDYNYWGQGTQVTVSS |
| binds | 53-A6 (VHH) VHH: EVQLVESGGGLVQPGGSRRLSCATSASITSISFMGWYRQAPGKQRELVAFIPSSGVPNYVGFAEGRFTISRDDAKNTVYLQMNGLKPEDTAVYYCYLQPLGGSGSWGQGTQVTVSS |
| binds | 53-F3 (VHH) VHH: EVQLVESGGGLVQPGGSLRLSCAAPGSIVSINNMGWYRQAPGKQRELVALITSGGTTTYADSVKGRFTISGDNAKKMVYLQMNSLKPEDTAVYYCNAVFTTDTRNWYDYWGQGTQVTVSS |

target: T2, Recombinant human PDGFRβ/Fc chimera …; test: competition ELISA: PDGFRβ-Fc (12 nM) pre-mixed with Nanobody, binding to coated PDGF-BB (80 nM), detection with HRP anti-human IgG
Method: In order to determine the receptor blocking efficiency of clones tested positive for PDGF-BB competition, a dilution series of purified Nanobodies were tested in the ELISA-based ligand competition setup. In short, 1.0 ug/ml (80 nM) recombinant human PDGF-BB (R&D Systems #220-BB) was coated in 96 well Maxisorp microtiter plates (Nunc) and blocked with 4% Marvel skimmed milk in PBS. In parallel, 1 ug/ml (12 nM) PDGFRβ-Fc chimera was incubated with a dilution series of purified Nanobodies. After 1 hour, the receptor-Nanobody pre-mixes were incubated 1 hour with the coated ligand. Bound PDGFRβ-Fc was detected using HRP-conjugated goat anti-human IgG (Jackson Immunoresearch, Cat # 109-035-098). […] Ligand is coated at 80 nM and receptor is added at 12 nM.

| IC50 (read off the curve) [nM] | Binder |
| --- | --- |
| ~8 | 53-A5 (VHH, Purified Nanobody) VHH: EVQLVESGGGLVQAGGSLRLTCVVSGRTYNNYVMGWFRQAPGKEREFVAGIDWSSSWSSTLYADSVKGRFTISRNNAKKTVSLQMNSLKPEDTAVYYCAANLGSKNPSLRPGREAYNYWGQGTQVTVSS |
| ~9 | 53-H8 (VHH, Purified Nanobody) VHH: EVQLVESGGGLVQAGGSLRLTCVVSGRTYNNYVMGWFRQAPGKEREFVAGIDWSSSWTSTTLYADSVKGRFTISRNNAKKTVSLQMNSLKPEDTAVYYCAANLGSKNPSLRPGRETYNYWGQGAQVTVSS |
| ~60 | 53-G10 (VHH, Purified Nanobody) VHH: EVQLVESGGGLVQAGGSLRLSCAASGLFFSFYNMGWFRQAPGKEREFVAIIRKTGGSTYYADSVKGRFTISRDNAKNTVYLQMDSLKPEDTAVYYCAAASSYYSDSYYYTRSDKYNYWGQGTQVTVSS |

target: T1, Recombinant human FGFR4/Fc chimera (R&D …); test: ELISA: periplasmic extract on coated FGFR4-Fc (500 ng/ml)
Method: In order to determine binding specificity to FGFR4, the clones were tested in an ELISA binding assay setup, using the monoclonal […]. Shortly, 500 ng/ml of Fc-FGFR4 (R&D Systems Cat #685 FR) was coated on Maxisorp ELISA plates (Nunc) and free binding sites were blocked using 4% Marvel skimmed milk in PBS. After a wash step with PBS, 10 ul of periplasmic extract from the monoclonal inductions of the different clones in 100 ul 2% Marvel PBS were allowed to bind to the FGFR4-Fc. […] 53-G3 was used as a reference since it was selected against PDGFRβ-Fc.

| binding result | Binder |
| --- | --- |
| binds | 73-E6 (VHH, Purified Nanobody) VHH: EVQLVESGGGLVQAGGSLRLSCAASGSTFTETPFTMHALSWYRQSEGKERELVAAISLAGTTNYADSVKGRFTISRDNGKKAVYLQMNSLKAEDTAVYYCNVGSWFQGYYAMDYWGEGTLVTVSS |
| binds | 55-B8 (VHH, Purified Nanobody) VHH: EVQLVESGGGLVQPGGSLRLSCTASTSIFSLYDMGWYRQAPGKERELVARITSGRSINYADSVKGRFTISRDNAKNTVYLQMNSLKPEDTAAYYCNANHHDWGTNWDFWGQGTQVTVSS |
| binds | 73-A9 (VHH, Purified Nanobody) VHH: EVQLVESGGGLVQPGESLSLSCTASGSAFGINSMGWYRQAPGKERELVAVMYSDSNTTYTDSVKGRFTISRDYAKNTVYLRMNSLKPEDTAVYFCHCEAIREPGDYYGWHYWGKGTLVTVSS |
| binds | 73-A7 (VHH, Purified Nanobody) VHH: EVQLVESGGGLVQPGGSLRLSCAASGFTFGSYDMSWVRQAPGKGPEWVSAINSGGGTTYYADSVKGRFTISRDNAKNTLYLQMNSLKPEDTAVYYCATGRPLWDYSDYADFGSWGQGTQVTVSS |

target: T2, Recombinant human PDGFRβ/Fc chimera …; test: phage ELISA on PDGFRβ-Fc (0.1 ug/ml) captured by coated anti-human IgG, detection with HRP anti-M13
Method: as §1

| binding result | Binder |
| --- | --- |
| binds | 53-A3 (VHH, Purified Nanobody) VHH: EVQLVESGGGLVQPGGSLRLSCAASGSIVRVDFMGWYRQAPGKQREVVTFITSGGSPNYVDSVTGRFTISRDNAKNTMYLQMNSLKPEDTAVYYCYIQSGTAGSWGQGTQVTVSS |
